In publication PMC11603049:

Biological target: MARV NPcore (VP35 NPBP removed by TEV) (Marburg virus (Mt. Elgon-Musoke strain), UniProt P27588 1-430)
Sequence (P27588 1-430): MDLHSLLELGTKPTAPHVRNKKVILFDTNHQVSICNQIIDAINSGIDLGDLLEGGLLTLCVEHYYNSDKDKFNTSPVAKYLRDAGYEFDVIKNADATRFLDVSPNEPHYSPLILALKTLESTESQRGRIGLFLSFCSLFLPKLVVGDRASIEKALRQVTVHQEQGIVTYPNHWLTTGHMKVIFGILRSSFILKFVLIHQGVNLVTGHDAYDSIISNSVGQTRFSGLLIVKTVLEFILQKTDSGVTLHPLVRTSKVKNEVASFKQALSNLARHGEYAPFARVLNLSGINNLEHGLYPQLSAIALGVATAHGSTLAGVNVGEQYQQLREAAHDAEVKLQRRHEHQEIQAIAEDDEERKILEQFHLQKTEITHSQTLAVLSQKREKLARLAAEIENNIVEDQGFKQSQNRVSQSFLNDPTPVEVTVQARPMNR

B1: 18 nt ssRNA, first 18 bases of the MARV genome (ssRNA)
RNA: AGACACACAAAAACAAGA
  binding result: binds
